The record followed here is patent US11723913.

This assay concerns the target murine protein S (mouse) (UniProt Q08761). Nature of the assay: cell-based or functional assay.
UniProt Q08761, sequence (Q08761 42-675 limits assumed): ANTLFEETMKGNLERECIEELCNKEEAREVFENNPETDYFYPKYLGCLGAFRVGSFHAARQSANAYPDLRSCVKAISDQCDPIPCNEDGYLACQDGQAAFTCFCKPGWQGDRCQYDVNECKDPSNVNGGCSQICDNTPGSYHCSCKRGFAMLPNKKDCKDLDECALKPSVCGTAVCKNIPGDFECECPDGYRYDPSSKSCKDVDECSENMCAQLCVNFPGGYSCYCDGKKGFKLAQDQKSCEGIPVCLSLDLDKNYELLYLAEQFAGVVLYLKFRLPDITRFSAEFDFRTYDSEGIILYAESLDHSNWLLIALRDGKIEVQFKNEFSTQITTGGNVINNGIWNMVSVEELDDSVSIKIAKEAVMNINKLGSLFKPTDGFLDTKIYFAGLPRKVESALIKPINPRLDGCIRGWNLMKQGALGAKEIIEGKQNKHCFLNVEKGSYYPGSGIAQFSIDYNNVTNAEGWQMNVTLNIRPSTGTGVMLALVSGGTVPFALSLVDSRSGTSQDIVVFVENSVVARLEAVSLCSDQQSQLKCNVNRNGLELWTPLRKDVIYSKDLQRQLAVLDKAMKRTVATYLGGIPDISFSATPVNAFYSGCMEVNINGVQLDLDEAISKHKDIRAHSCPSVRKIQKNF

For “mutated recombinant mouse APC (rmAPC L38D) (from UniProt P33587 42-460)”, the reduction of ETP in Ca2+ ionophore-activated PRP of WT mice at 8 nM APC was 30%. Then “wild type recombinant mouse APC (wt-rmAPC) (from UniProt P33587 42-460)”, with 90%.
